The target of the assay is Bradykinin (Homo sapiens, UniProt P01042). In words: SPR. (Surface plasmon resonance follows binding to a sensor surface in real time, without labels.)

These results are taken from PMC5702532 (2016).

Chain of Bradykinin (P01042 whole entry, looked up): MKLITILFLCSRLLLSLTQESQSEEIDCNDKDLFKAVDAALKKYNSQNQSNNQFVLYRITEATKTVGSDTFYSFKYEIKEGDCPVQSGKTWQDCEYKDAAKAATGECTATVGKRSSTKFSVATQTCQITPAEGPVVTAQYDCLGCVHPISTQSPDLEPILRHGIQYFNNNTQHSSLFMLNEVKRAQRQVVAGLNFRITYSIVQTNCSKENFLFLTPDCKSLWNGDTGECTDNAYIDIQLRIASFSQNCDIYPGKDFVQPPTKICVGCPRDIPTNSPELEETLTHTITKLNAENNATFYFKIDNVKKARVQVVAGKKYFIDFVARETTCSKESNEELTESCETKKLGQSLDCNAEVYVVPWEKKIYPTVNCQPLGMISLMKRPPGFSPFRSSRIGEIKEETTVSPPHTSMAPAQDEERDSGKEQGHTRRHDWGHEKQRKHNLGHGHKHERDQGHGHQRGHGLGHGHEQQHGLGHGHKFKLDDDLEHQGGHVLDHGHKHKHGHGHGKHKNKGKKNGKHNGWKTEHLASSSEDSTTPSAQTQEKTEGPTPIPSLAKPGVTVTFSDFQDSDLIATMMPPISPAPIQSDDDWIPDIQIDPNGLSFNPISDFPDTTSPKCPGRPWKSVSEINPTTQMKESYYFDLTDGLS

B1: Aminopeptidase P (APaseP) (protein)
chain: PPKVTSELLRQLRQAMRNSEYVTEPIQAYIIPSGDAHQSEYIAPCDCRRAFVSGFDGSAGTAIITEEHAAMWTDGRYFLQAAKQMDSNWTLMKMGLKDTPTQEDWLVSVLPEGSRVGVDPLIIPTDYWKKMAKVLRSAGHHLIPVKENLVDKIWTDRPERPCKPLLTLGLDYTGISWKDKVADLRLKMAERNVMWFVVTALDEIAWLFNLRGSDVEHNPVFFSYAIIGLETIMLFIDGDRIDAPSVKEHLLLDLGLEAEYRIQVHPYKSILSELKALCADLSPREKVWVSDKASYAVSETIPKDHRCCMPYTPICIAKAVKNSAESEGMRRAHIKDAVALCELFNWLEKEVPKGGVTEISAADKAEEFRRQQADFVDLSFPTISSTGPNGAIIHYAPVPETNRTLSLDEVYLIDSGAQYKDGTTDVTRTMHFGTPTAYEKECFTYVLKGHIAVSAAVFPTGTKGHLLDSFARSALWDSGLDYLHGTGHGVGSFLNVHEGPCGISYKTFSDEPLEAGMIVTDEPGYYEDGAFGIRIENVVLVVPVKTKYNFNNRGSLTFEPLTLVPIQTKMIDVDSLTDKECDWLNNYHLTCRDVIGKELQKQGRQEALEWLIRETQPISKQH
Consider B1, for which the Kd turned out to be 15.3 µM.

For orientation: Kd means the concentration at which binding is half-saturated. Read a low Kd as tighter binding.
